Earlier results, collected in patent US20020001615A1, “Combined interferon alfa and lipsosmal-encapsulated all-trans retinoic acid, including preparation and use” (Aronex Pharmaceuticals, Inc., priority 2000, published 2002).
Where two headings read alike, the source gives them in different places.

Tests used:
[1] = after three months on therapy, concomitant IFN

Row | peak levels of atra in the serum [1] | Molecule | stable for (time) (at 30° C.) | stable for (time) (at 35° C.)
1 | declined | CC1=C(/C=C/C(C)=C/C=C/C(C)=C/C(=O)O)C(C)(C)CCC1 [ATRA, all-trans retinoic acid] |  | 
2 |  | Interferon alfa-2b | up to 14 days | up to 7 days
